Reference: patent US20250011379

How the values were obtained:
[1] = molecular target: human C4b (UniProt P0C0L5)
[2] = molecular target: soluble human C3b (UniProt P01024)
soluble human C3b, sequence (P01024 whole entry, looked up, tested part not stated): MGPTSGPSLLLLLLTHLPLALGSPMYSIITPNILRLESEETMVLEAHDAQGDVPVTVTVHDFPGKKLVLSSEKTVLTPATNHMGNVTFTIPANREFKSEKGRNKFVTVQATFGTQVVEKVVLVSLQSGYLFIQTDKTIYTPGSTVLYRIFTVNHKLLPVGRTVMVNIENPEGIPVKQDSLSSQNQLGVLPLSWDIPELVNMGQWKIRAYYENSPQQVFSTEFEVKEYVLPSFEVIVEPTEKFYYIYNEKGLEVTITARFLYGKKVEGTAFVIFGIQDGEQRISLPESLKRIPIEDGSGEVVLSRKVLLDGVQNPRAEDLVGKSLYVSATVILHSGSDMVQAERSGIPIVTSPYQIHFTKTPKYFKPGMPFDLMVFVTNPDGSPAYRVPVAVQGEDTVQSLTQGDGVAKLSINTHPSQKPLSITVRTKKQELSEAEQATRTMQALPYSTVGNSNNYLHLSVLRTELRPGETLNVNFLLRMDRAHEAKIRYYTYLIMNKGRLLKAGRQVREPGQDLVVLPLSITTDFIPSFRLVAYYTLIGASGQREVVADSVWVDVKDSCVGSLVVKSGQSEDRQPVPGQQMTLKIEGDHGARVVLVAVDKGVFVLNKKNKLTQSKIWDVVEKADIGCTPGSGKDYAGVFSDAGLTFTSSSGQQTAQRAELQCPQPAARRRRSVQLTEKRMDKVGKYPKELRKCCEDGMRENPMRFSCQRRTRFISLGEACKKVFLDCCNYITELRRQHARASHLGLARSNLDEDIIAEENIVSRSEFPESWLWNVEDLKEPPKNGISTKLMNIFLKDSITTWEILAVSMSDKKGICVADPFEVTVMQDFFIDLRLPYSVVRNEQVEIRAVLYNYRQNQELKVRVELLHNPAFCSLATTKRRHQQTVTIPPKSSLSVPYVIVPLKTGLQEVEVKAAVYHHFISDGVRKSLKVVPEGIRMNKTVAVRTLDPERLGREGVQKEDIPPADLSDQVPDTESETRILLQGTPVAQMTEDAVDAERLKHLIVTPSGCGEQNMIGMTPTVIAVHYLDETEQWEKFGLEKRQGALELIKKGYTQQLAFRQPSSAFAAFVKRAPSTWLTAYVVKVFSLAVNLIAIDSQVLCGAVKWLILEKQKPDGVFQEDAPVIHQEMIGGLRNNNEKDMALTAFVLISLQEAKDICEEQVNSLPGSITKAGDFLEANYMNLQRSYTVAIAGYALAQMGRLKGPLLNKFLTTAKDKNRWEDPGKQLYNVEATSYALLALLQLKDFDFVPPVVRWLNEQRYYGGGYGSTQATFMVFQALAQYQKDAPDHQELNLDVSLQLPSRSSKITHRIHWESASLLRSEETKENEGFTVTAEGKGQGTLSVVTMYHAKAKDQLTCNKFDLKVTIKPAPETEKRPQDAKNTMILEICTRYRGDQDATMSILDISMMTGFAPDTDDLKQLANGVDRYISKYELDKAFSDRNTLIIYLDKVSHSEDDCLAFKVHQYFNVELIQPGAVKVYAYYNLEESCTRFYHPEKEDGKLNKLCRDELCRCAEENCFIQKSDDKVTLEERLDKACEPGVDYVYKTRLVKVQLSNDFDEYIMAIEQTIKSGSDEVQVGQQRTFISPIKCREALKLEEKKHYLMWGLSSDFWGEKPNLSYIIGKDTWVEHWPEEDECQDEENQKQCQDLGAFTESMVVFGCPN

human C4b, sequence (P0C0L5 whole entry, looked up): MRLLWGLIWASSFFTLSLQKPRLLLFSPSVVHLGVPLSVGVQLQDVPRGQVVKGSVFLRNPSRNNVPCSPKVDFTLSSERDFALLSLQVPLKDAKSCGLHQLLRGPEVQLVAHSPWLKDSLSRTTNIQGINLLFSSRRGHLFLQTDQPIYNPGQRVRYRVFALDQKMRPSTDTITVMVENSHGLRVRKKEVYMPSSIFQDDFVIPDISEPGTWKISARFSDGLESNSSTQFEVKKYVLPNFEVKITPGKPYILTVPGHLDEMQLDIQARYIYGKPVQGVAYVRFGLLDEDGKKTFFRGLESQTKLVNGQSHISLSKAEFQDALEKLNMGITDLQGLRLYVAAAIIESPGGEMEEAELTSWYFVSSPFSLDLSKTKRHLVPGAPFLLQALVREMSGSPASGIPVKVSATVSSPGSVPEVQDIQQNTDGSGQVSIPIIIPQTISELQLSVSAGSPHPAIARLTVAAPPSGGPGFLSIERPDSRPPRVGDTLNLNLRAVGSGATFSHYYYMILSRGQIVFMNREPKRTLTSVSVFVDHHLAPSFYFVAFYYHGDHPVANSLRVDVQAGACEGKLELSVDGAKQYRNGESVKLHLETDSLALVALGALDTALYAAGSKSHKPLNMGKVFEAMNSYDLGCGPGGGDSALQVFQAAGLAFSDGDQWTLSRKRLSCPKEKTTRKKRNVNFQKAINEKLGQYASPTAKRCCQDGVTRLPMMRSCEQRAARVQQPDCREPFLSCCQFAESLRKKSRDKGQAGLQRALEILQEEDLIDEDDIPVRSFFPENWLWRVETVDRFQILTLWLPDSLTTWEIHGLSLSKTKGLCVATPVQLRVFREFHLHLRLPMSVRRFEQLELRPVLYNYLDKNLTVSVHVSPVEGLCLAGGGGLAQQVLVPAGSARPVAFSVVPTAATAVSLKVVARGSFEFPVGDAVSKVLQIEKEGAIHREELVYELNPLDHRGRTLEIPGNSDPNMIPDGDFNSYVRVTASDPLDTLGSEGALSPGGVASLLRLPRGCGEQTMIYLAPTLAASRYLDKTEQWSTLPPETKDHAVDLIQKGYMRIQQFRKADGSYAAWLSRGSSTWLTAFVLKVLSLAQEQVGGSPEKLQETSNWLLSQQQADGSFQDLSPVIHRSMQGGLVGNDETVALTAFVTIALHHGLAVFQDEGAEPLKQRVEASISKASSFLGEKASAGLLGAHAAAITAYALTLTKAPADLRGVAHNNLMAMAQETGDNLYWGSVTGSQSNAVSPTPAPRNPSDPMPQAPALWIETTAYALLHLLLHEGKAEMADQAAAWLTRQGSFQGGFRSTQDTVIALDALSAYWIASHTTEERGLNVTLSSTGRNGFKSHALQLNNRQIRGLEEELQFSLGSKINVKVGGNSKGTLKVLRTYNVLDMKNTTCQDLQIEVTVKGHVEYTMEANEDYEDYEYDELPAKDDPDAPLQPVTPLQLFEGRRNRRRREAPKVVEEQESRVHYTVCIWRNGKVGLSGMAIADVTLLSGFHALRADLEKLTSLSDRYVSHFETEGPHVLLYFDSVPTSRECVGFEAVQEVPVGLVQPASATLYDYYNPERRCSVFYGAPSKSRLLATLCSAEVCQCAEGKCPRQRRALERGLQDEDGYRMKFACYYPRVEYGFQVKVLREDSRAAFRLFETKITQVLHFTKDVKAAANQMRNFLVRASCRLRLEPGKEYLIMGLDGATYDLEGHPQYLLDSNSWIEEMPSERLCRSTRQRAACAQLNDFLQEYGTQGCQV
Const. No. 95: HSA linked with CFI (CFI-HSA), wild type, sequence (chain): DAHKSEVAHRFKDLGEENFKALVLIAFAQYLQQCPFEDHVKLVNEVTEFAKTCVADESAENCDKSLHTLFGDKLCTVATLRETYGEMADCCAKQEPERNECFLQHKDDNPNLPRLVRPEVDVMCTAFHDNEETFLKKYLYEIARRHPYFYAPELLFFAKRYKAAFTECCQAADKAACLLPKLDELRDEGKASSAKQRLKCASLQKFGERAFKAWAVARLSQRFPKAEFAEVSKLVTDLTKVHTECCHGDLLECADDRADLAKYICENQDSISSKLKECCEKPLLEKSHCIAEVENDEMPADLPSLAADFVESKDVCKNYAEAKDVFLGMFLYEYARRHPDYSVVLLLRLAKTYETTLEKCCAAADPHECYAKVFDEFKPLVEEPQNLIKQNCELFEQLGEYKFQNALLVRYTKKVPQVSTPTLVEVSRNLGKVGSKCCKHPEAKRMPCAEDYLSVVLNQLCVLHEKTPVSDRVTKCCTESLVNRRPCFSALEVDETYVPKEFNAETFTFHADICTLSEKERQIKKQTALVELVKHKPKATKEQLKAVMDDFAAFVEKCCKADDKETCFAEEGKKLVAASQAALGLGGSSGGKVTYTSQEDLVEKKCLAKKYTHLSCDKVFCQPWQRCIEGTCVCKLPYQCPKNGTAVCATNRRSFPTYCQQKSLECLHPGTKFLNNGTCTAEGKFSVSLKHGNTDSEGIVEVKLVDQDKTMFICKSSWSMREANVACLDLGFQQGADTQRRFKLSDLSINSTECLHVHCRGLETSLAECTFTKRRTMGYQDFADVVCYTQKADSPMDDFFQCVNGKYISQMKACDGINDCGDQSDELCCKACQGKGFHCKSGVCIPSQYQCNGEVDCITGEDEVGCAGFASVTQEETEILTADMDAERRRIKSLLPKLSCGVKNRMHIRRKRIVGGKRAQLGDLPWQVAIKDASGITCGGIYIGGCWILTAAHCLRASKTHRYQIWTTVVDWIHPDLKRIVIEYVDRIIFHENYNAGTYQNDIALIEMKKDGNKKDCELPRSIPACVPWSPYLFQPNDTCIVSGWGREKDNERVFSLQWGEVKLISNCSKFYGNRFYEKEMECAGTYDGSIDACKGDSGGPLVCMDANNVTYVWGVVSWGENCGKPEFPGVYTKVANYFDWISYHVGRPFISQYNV

Substance | C4c ref fold [1] | iC3b ref fold [2]
Const. No. 92: HSA-GGSSGG-hCFI; N422A | 1.52 fold | 0.72 fold
Const. No. 27: HSA-GGSSGG-hCFI; E401R | 2.93 fold | 2.12 fold
Const. No. 76: HSA-GGSSGG-hCFI; H383K; D385N; K387S; R388Q; E392Q; Y393T; D395K; K419M; D420H; G421T; N422G; D425E | 4.46 fold | 2.11 fold
Const. No. 50: HSA-GGSSGG-hCFI; E416K | 1.23 fold | 1.89 fold
Const. No. 80: HSA-GGSSGG-hCFI; Δ(1-KVTYTS-6)(SEQ ID NO: 35) > RSPSASDLP (SEQ ID NO: 36) | 3.07 fold | 0.91 fold
Const. No. 30: HSA-GGSSGG-hCFI; N402G | 0.73 fold | 1.44 fold
Const. No. 19: HSA-GGSSGG-hCFI; S499A; I500K | -0.05 fold | 0.02 fold
Const. No. 71: HSA-GGSSGGSSGG-Gorilla CFI | 0.09 fold | 0.07 fold
Const. No. 77: HSA-GGSSGG-hCFI; H383K; R388Q; E392Q; Y393T; K419M | 3.81 fold | 1.21 fold
Const. No. 43: HSA-GGSSGG-hCFI; Δ(275-CAGFASVAQE-284)(SEQ ID NO: 31) > CEEDRQQNIPKGLARSAQGEAEIETE (SEQ ID NO: 32) | 1.54 fold | 0.89 fold
Const. No. 64: HSA-GGSSGG-hCFI-GGSSGG-hCR1; CCP8; CCP9; CCP10 | 4.11 fold | 0.06 fold
Const. No. 72: HSA-GGSSGGSSGG-Cyno CFI | 0.34 fold | 3.17 fold
Const. No. 3: HSA-GGSSGG-hCFI; L307F | 3.48 fold | 1.01 fold
Const. No. 48: HSA-GGSSGG-hCFI; Δ(V565) > VG | 0.67 fold | 0 fold
Const. No. 21: HSA-GGSSGG-hCFI; K423R | 1.44 fold | 0.55 fold
Const. No. 81: HSA-GGSSGG-hCFI; M186E; G187L; Y188S; Q189N; D190G; F191L; D193G | 3.31 fold | 0.95 fold
Const. No. 38: HSA-GGSSGG-hCFI; N52A | 2.93 fold | 0.72 fold
Const. No. 5: HSA-GGSSGG-hCFI; L307W | 3.89 fold | 0.79 fold
Const. No. 34: HSA-GGSSGG-hCFI; H554K | 2.62 fold | 2.11 fold
Const. No. 33: HSA-GGSSGG-hCFI; H554F | 0.55 fold | 1 fold
Const. No. 7: HSA-GGSSGG-hCFI; P433A | 0.81 fold | 0.8 fold
Const. No. 37: HSA-GGSSGG-hCFI; K51R; N52A; A55P; T59M; R61G; F64Y | 3.59 fold | 1.12 fold
Const. No. 13: HSA-GGSSGG-hCFI; S499G | 0.72 fold | 0.34 fold
Const. No. 68: HSA-GGSSGG-hCFI-GGSSGG-hCR1; CCP1; CCP2; CCP3-GGSSGG-hCR1; CCP15; CCP16; CCP17 | 3.75 fold | 0.06 fold
Const. No. 22: HSA-GGSSGG-hCFI; R62A | 1.07 fold | 0.23 fold
Const. No. 93: HSA-GGSSGG-hCFI; T377A | 2.36 fold | 1.09 fold
Const. No. 42: HSA-GGSSGG-hCFI; L73D | 2.33 fold | 0.08 fold

Substance | C4c ref fold [1] | iC3b ref fold [2]
Const. No. 52: HSA-GGSSGG-hCFI; D395A | 0.78 fold | 1.55 fold
Const. No. 89: HSA-GGSSGG-hCFI; T377G; E457G; N531G-GGSSGG-hCR1; CCP15; CCP16; CCP17; hFH; CCP4-GGGGGGGGGGGG-hFH; CCP19; CCP20 | 3.21 fold | 0.05 fold
Const. No. 28: HSA-GGSSGG-hCFI; E401A | 0.86 fold | 1.87 fold
Const. No. 51: HSA-GGSSGG-hCFI; E416R | 1.17 fold | 1.87 fold
Const. No. 58: HSA-GGSSGG-hCFI; D395A; E416A; D425A | 0.06 fold | 0.77 fold
Const. No. 8: HSA-GGSSGG-hCFI; P433G | 0.39 fold | 0.14 fold
Const. No. 15: HSA-GGSSGG-hCFI; S499K | 1.98 fold | 0.67 fold
Const. No. 16: HSA-GGSSGG-hCFI; S499V | 1.24 fold | 0.18 fold
Const. No. 53: HSA-GGSSGG-hCFI; D395G | 0.8 fold | 1.52 fold
Const. No. 18: HSA-GGSSGG-hCFI; S499G; I500K | 0.08 fold | 0.16 fold
Const. No. 91: HSA-GGSSGG-hCFI; T377A; E457G; N531G | 4.59 fold | 1.7 fold
Const. No. 35: HSA-GGSSGG-hCFI; R371E | 2.02 fold | 0.04 fold
Const. No. 2: HSA-GGSSGG-hCFI; F559H | 0.58 fold | 1.73 fold
Const. No. 49: HSA-GGSSGG-hCFI; Δ(V565) > VY | 1.47 fold | 0.15 fold
Const. No. 10: HSA-GGSSGG-hCFI; Δ(Y496) | 0.02 fold | 0.03 fold
Const. No. 70: HSA-GGSSGGSSGG-Rat CFI | 4.12 fold | 0.94 fold
Const. No. 9: HSA-GGSSGG-hCFI; P433F | 0.05 fold | 0.07 fold
Const. No. 24: HSA-GGSSGG-hCFI; R62L | 0.59 fold | 0.19 fold
Const. No. 74: HSA-GGSSGGSSGG-Bovine CFI | 2.19 fold | 1.67 fold
Const. No. 36: HSA-GGSSGG-hCFI; A342R | 2.08 fold | 1.73 fold
Const. No. 54: HSA-GGSSGG-hCFI; D395K | 1.61 fold | 2.06 fold
Const. No. 79: HSA-GGSSGG-hCFI; Q69H; L73F; G79E; T80I; L83S; N84H | 3.36 fold | 1.63 fold
Const. No. 1: HSA-GGSSGG-hCFI; F559W | 1.08 fold | 1.39 fold
Const. No. 25: HSA-GGSSGG-hCFI; R62H | 0.74 fold | 0.29 fold
Const. No. 73: HSA-GGSSGGSSGG-Chimp CFI | -0.03 fold | 0.08 fold
Const. No. 40: HSA-GGSSGG-hCFI; T59E | 2.17 fold | 0.68 fold
Const. No. 55: HSA-GGSSGG-hCFI; D395R | 1.38 fold | 1.85 fold

Substance | C4c ref fold [1] | iC3b ref fold [2]
Const. No. 47: HSA-GGSSGG-hCFI; R484E | 0.93 fold | 0.35 fold
Const. No. 39: HSA-GGSSGG-hCFI; A55P | 2.83 fold | 1.1 fold
Const. No. 78: HSA-GGSSGG-hCFI; K51D; T59E; R61D | -0.24 fold | 0 fold
Const. No. 59: HSA-GGSSGG-hCFI; N402D | 1.66 fold | 0.74 fold
Const. No. 11: HSA-GGSSGG-hCFI; Δ(D497) | -0.02 fold | -0.01 fold
Const. No. 46: HSA-GGSSGG-hCFI; R484K | 0.76 fold | 1.21 fold
Const. No. 45: HSA-GGSSGG-hCFI; R484A | 1.3 fold | 0.7 fold
Const. No. 32: HSA-GGSSGG-hCFI; N402R | 0.98 fold | 1.47 fold
Const. No. 20: HSA-GGSSGG-hCFI; T495F; Y496L; S499G; I500K | 0.05 fold | 0 fold
Const. No. 31: HSA-GGSSGG-hCFI; N402K | 1.14 fold | 1.53 fold
Const. No. 44: HSA-GGSSGG-hCFI; Δ(275-CAGFASVAQE-284)(SEQ ID NO: 31) > CEEDRQQNIPKGLARSAQGEAEIETE (SEQ ID NO: 32) + GGSSGG (SEQ ID NO: 6) + CR1(ccp15-17) | 3.47 fold | 0.03 fold
Const. No. 12: HSA-GGSSGG-hCFI; Δ(Y496; D497) | 0.9 fold | 0.18 fold
Const. No. 75: HSA-GGSSGGSSGG-Alligator CFI | 0.12 fold | -0.03 fold
Const. No. 60: HSA-GGSSGG-hCFI; K368D | 1.39 fold | 0.03 fold
Const. No. 4: HSA-GGSSGG-hCFI; L307H | 3.55 fold | 0.89 fold
Const. No. 57: HSA-GGSSGG-hCFI; D395A; E416A | 0.06 fold | 0.76 fold
Const. No. 26: HSA-GGSSGG-hCFI; E401K | 1.92 fold | 2.37 fold
Const. No. 29: HSA-GGSSGG-hCFI; E401F | 0.5 fold | 1.64 fold
Const. No. 17: HSA-GGSSGG-hCFI; Y496L | 1.54 fold | 0.44 fold
Const. No. 41: HSA-GGSSGG-hCFI; L73F | 2.36 fold | 0.9 fold
Const. No. 14: HSA-GGSSGG-hCFI; S499A | 0.45 fold | 1.36 fold
Const. No. 6: HSA-GGSSGG-hCFI; L307Y | 2.98 fold | 0.63 fold
Const. No. 95: HSA linked with CFI (CFI-HSA), wild type | 1 fold | 1 fold
Const. No. 23: HSA-GGSSGG-hCFI; R62E | 0.1 fold | 0.04 fold
Const. No. 67: HSA-GGSSGG-hCFI-GGSSGG-hCR1; CCP1; CCP2; CCP3; CCP4 | 3.2 fold | -0.01 fold
Const. No. 56: HSA-GGSSGG-hCFI; D395A; D425A | 0.65 fold | 1.77 fold
